The values below come from article PMC6684861 (Traffic (Copenhagen, Denmark), 2018).

No end group written: not given here.

The test concerns the target His-tagged murine Importin α1 with the Importin β binding domain (IBB) deleted (ImpαΔIBB) (murine, UniProt P52293 70-529). Put plainly: crystal structure.

For Ac-SHLSPRKKRPRQTGAL [TdT NLS peptide for crystallization, Ac-S7HLSPRKKRPRQTGAL], the binding result is “binds”. Next, Ac-RGILKAFPKRQKIHADASSKVLAKIPRRE [pol λ NLS peptide for crystallization, Ac-R4GILKAFPKRQKIHADASSKVLAKIPRRE]: “binds”; Ac-LPKRRRARVGSPSGDAASSTPPSTRFPGV [pol μ NLS peptide for crystallization, Ac-L2PKRRRARVGSPSGDAASSTPPSTRFPGV]: “binds”.
